Target: MDC1 (endogenous, HCT116) [human (endogenous in HCT116)]
Test: proximity ligation assay (PLA) in cells
Settings: ESCO2 KD HCT116 cells, bleomycin treated; 30 cells counted per group; mean ± SEM; parent: 14; read off a plot

## Flag-ESCO2 WT (in ESCO2 KD HCT116 cells) mutant S196A; T233A [human] / MDC1 (endogenous, HCT116) [human (endogenous in HCT116)] chain 1 S196A, chain 1 T233A
  response (PLA dots per cell): 0.5

From publication PMC10415120
